Sequences and labels used below:
B1: T-box transcription factor TBX5 (Mus musculus), P70326 (parent)
chain: MADTDEGFGLARTPLEPDSKDRSCDSKPESALGAPSKSPSSPQAAFTQQGMEGIKVFLHERELWLKFHEVGTEMIITKAGRRMFPSYKVKVTGLNPKTKYILLMDIVPADDHRYKFADNKWSVTGKAEPAMPGRLYVHPDSPATGAHWMRQLVSFQKLKLTNNHLDPFGHIILNSMHKYQPRLHIVKADENNGFGSKNTAFCTHVFPETAFIAVTSYQNHKITQLKIENNPFAKGFRGSDDLELHRMSRMQSKEYPVVPRSTVRHKVTSNHSPFSSETRALSTSSNLGSQYQCENGVSGPSQDLLPPPNPYPLAQEHSQIYHCTKRKDEECSSTEHPYKKPYMETSPSEEDTFYRSGYPQQQGLSTSYRTESAQRQACMYASSAPPSEPVPSLEDISCNTWPSMPSYSSCTVTTVQPMDRLPYQHFSAHFTSGPLVPRLAGMANHGSPQLGEGMFQHQTSVAHQPVVRQCGPQTGLQSPGGLQPPEFLYTHGVPRTLSPHQYHSVHGVGMVPEWSENS

The variants in assay [1] derive from B1. The settings on record: with klf13_mouse Klf13, Q9JJZ6.
klf13_mouse Klf13, Q9JJZ6, sequence (Q9JJZ6 whole entry): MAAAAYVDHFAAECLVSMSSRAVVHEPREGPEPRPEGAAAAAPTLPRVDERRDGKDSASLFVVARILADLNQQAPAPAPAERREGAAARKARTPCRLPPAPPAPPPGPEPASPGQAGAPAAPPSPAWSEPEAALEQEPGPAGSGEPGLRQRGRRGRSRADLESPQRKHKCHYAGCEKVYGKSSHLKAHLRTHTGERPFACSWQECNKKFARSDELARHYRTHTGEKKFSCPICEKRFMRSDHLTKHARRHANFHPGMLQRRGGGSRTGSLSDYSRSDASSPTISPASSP
In assay [2] the parent is B1. The settings on record: with nkx25_mouse Nkx2-5, P42582.
nkx25_mouse Nkx2-5, P42582, sequence (P42582 whole entry): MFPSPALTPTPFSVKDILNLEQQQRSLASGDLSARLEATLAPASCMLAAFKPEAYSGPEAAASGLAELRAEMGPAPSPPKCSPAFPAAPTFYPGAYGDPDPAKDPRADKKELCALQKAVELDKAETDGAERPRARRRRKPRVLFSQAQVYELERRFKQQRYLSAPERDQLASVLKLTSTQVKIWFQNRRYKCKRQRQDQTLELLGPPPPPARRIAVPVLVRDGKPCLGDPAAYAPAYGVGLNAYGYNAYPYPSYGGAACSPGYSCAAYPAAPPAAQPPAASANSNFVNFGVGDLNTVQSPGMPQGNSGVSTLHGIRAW

The record followed here is IntAct's records for PubMed 28164238.

On to G80Q, for which the “effect of a mutation on the interaction” value in assay [1] and in assay [2] was “decreasing interaction strength” throughout.
On to L102P, for which the “effect of a mutation on the interaction” value in assay [1] and in assay [2] was “decreasing interaction strength” throughout.
For the variant I54T, the “effect of a mutation on the interaction” value in assay [1] and in assay [2] was “with no effect” throughout.
In the case of R237Q, the “effect of a mutation on the interaction” value in assay [1] and in assay [2] was “decreasing interaction strength” in each case.
Consider T144I, for which the “effect of a mutation on the interaction” value in assay [1] and in assay [2] was “decreasing interaction strength” throughout.
Regarding R134C, the “effect of a mutation on the interaction” value in assay [1] and in assay [2] was “with no effect” throughout.
Take A79V: the “effect of a mutation on the interaction” value in assay [1] and in assay [2] was “decreasing interaction strength” throughout.
On to T223M, for which the “effect of a mutation on the interaction” value in assay [1] and in assay [2] was “decreasing interaction strength” throughout.
For P96L, the “effect of a mutation on the interaction” value is given as “with no effect” in assay [1] and “decreasing interaction strength” in assay [2].
For Y100C, the “effect of a mutation on the interaction” value in assay [1] and in assay [2] was “decreasing interaction strength” throughout.
Turning to G169R, the “effect of a mutation on the interaction” value in assay [1] and in assay [2] was “decreasing interaction strength” throughout.
Consider W121G, for which the figures for the “effect of a mutation on the interaction” value in assay [1] and in assay [2] were “decreasing interaction strength” and “with no effect”, respectively.
Taken in the same sequence, the figures for G195A were “with no effect” and “decreasing interaction strength”.
